Several values for one entry are separate records, joined by “and”; a condition that tells them apart may be missing. Equal entries are not always repeated. Where no end group is shown, it is not given here. Cy5 = cyanine-5 fluorescent label
T1: GFP-tagged WD40 domain of yeast Cdh1 (aa 241–550), for SMOR (S. cerevisiae, UniProt P53197 241-550)
T1 construct: Cdh1, S. cerevisiae, WD40 domain, aa 241-550; also called Cdh1^WD40; GFP-tagged Cdh1^WD40; source: Sf9, baculovirus, purified (StrepTrap); not shown: 2xStrep-Tag II, N-terminal, kept; GFP, C-terminal, kept
T1 sequence (looked up): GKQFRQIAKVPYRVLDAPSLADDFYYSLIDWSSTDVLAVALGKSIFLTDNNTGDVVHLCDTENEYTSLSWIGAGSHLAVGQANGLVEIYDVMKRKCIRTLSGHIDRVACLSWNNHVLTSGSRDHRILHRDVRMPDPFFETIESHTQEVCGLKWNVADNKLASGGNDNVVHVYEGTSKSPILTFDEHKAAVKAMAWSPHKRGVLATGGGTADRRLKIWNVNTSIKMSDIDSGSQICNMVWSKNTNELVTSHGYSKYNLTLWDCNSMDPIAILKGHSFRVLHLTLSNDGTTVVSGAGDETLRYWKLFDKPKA

T2: WD40 domain of Cdh1 from Saccharomyces cerevisiae (aa 241–550), for anisotropy (S. cerevisiae, UniProt P53197 241-550)
T2 construct: Cdh1, S. cerevisiae, WD40 domain, aa 241-550; Cloned into pFastBac HT A; also called Cdh1^WD40; Cdh1 WD40; source: Sf9, baculovirus, purified (StrepTrap)
T2 sequence (looked up): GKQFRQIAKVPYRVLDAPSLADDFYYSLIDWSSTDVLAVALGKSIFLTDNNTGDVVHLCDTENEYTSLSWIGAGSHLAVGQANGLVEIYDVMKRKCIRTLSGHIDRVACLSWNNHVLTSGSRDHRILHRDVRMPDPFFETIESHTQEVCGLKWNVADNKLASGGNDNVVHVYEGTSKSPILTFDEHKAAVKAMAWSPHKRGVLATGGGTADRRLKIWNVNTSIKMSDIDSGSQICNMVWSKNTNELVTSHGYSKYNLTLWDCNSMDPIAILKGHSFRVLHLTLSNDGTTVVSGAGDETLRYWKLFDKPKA


What was measured:
Conditions in all cases: both partners purified
[1] = target: T3, Cdc20-activated yeast APC/C (S. cerevisiae | S. cerevisiae …, UniProt P26309 1-610; P53886 1-1748; P09798 1-840; P38042 1-758; P53068 1-250); experiment: single-molecule off-rate (SMOR) assay, TIRF microscopy; target held on PEG/PEG-biotin glass by NeutrAvidin and biotinylated anti-Strep-Tag II antibody (tag on the activator); dye-labeled ligand (peptide no greater than 1 nM) in buffer C + BSA (20 mM HEPES pH 7.5, 150 mM KCl, 10% glycerol, 0.05% Tween-20, 1 mM DTT) with oxygen scavengers; mean dwell time from an exponential distribution; dwell times below 100 ms …
T3 construct: Apc1 subunit of the APC/C, from yeast strain NHY13; Cdc16 subunit of the APC/C (Cdc16-TAP); Cdc27 subunit of the APC/C; Apc10/Doc1 subunit of the APC/C; only Apc1, Cdc16, Cdc27 and Apc10 are named; TEV cleavage of the TAP tag may leave part of the tag on Cdc16; also called APC/C^Cdc20; not shown: 2xStrep-Tag II, N-terminal, kept; GFP, C-terminal, kept; copies: + + + + + + + + + + + + +

[2] = target: T4, Cdh1-activated yeast APC/C (S. cerevisiae | S. cerevisiae …, UniProt P53197 1-566; P53886 1-1748; P09798 1-840; P38042 1-758; P53068 1-250); experiment: as above
T4 construct: Apc1 subunit of the APC/C, from yeast strain NHY13; Cdc16 subunit of the APC/C (Cdc16-TAP); Cdc27 subunit of the APC/C; Apc10/Doc1 subunit of the APC/C; only Apc1, Cdc16, Cdc27 and Apc10 are named; the yeast strain lacks endogenous Cdh1; TEV cleavage of the TAP tag may leave part of the tag on Cdc16; also called APC/C^Cdh1; not shown: 2xStrep-Tag II, N-terminal, kept; GFP, C-terminal, kept; …

[3] = target: T5, GFP-tagged WD40 domain of human Cdc20 (aa 162–484), for SMOR (human, UniProt Q12834 162-484); experiment: as above
T5 construct: human Cdc20, WD40 domain, aa 162-484; also called hCdc20^WD40; human Cdc20^WD40; source: Sf9, baculovirus, purified (StrepTrap); not shown: 2xStrep-Tag II, N-terminal, kept; GFP, C-terminal, kept
T5 sequence (Q12834 162-484): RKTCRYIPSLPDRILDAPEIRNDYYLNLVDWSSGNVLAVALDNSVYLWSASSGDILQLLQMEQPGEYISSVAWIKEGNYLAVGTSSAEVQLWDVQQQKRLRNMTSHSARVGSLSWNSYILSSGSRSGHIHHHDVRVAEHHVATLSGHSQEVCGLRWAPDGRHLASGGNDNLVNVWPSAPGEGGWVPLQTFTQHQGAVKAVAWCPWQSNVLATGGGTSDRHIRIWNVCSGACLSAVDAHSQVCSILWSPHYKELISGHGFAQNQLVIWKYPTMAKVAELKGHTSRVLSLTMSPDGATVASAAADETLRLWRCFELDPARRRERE

[4] = target: T6, GFP-tagged WD40 domain of human Cdh1 (aa 165–484), for SMOR (human, UniProt Q9UM11 165-484); experiment: as above
T6 construct: human Cdh1, WD40 domain, aa 165-484; also called hCdh1^WD40; human Cdh1^WD40; source: Sf9, baculovirus, purified (StrepTrap); not shown: 2xStrep-Tag II, N-terminal, kept; GFP, C-terminal, kept
T6 sequence (Q9UM11 165-484): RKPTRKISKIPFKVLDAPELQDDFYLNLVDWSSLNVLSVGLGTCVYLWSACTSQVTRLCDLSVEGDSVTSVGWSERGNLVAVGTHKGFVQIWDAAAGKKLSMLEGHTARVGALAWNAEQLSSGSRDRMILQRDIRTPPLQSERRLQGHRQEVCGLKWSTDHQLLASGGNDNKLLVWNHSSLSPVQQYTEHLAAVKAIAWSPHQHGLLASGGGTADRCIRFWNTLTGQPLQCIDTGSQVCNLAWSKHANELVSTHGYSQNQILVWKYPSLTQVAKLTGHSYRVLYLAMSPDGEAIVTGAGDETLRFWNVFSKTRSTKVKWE

[5] = target: T1, GFP-tagged WD40 domain of yeast Cdh1 …; experiment: as above
[6] = target: T2, WD40 domain of Cdh1 from Saccharomyces …; experiment: fluorescence polarisation; fluorescence anisotropy as a1, 10 nM labeled Hsl1 degron peptide with 100 µM unlabeled peptide of the other Hsl1 degron present
[7] = target: T2, WD40 domain of Cdh1 from Saccharomyces …; experiment: fluorescence polarisation; fluorescence anisotropy; 10 nM C-terminally Cy5-labeled peptide mixed with increasing concentrations of purified protein (Cdh1 WD40 up to 30.6 µM); wash buffer B (50 mM Tris-HCl pH 8, 150 mM KCl, 0.5 mM EDTA, 1 mM DTT, 10% glycerol); 25 °C; one-site equilibrium fit
[8] = target: T1, GFP-tagged WD40 domain of yeast Cdh1 …; experiment: fluorescence polarisation + other: single-molecule off-rate (SMOR) assay; inferred constants: kon from the KD of anisotropy and the koff of SMOR; KD for APC/C^Cdh1 from the dwell time with the kon of Cdh1 alone assumed
[9] = target: T6, GFP-tagged WD40 domain of human Cdh1 …; experiment: as above
[10] = target: T4, Cdh1-activated yeast APC/C; experiment: as above
[11] = target: T1, GFP-tagged WD40 domain of yeast Cdh1 …; experiment: single-molecule off-rate (SMOR) assay, TIRF microscopy; target held on PEG/PEG-biotin glass by NeutrAvidin and biotinylated anti-Strep-Tag II antibody (tag on the activator); dye-labeled ligand (peptide no greater than 1 nM) in buffer C + BSA (20 mM HEPES pH 7.5, 150 mM KCl, 10% glycerol, 0.05% Tween-20, 1 mM DTT) with oxygen scavengers; mean dwell time from an exponential distribution; dwell times below 100 ms …; remark: listed apart in the source
[12] = target: T7, WD40 domain of human Cdh1 (aa 165–484), for anisotropy (human, UniProt Q9UM11 165-484); experiment: fluorescence polarisation; fluorescence anisotropy; 10 nM C-terminally Cy5-labeled peptide mixed with increasing concentrations of purified protein (Cdh1 WD40 up to 30.6 µM); wash buffer B (50 mM Tris-HCl pH 8, 150 mM KCl, 0.5 mM EDTA, 1 mM DTT, 10% glycerol); 25 °C; one-site equilibrium fit
T7 construct: human Cdh1, WD40 domain, aa 165-484; Cloned into pFastBac HT A; also called human Cdh1 WD40; source: Sf9, baculovirus, purified (StrepTrap)
T7 sequence (Q9UM11 165-484): as above

[13] = target: T8, WD40 domain of human Cdc20 (aa 162–484), for anisotropy (human, UniProt Q12834 162-484); experiment: as above
T8 construct: human Cdc20, WD40 domain, aa 162-484; Cloned into pFastBac HT A; also called human Cdc20 WD40; source: Sf9, baculovirus, purified (StrepTrap)
T8 sequence (Q12834 162-484): as the sequence (Q12834 162-484) above

Binder | mean dwell time [1] [s] | mean dwell time [2] [s] | mean dwell time [4] [s] | mean dwell time [5] [s] | Kd [7] | further results
QDSKPRRALTDVPVNNNPLSQK-Cy5 [Cy5-labeled Clb5 D box peptide] | 0.207 | 0.159 | – | – | – | mean dwell time [3]: 0.054 s
LIYVDKENGEPGTRK-Cy5 [Cy5-labeled hSecurin KEN box peptide] | – | – | 0.174 | – | – | –
Hsl1 fragment (amino acids 667–872) with C-terminal HaloTag, mutations in the D box (domain or fragment, JF549 or JF646 dye covalently bound to the HaloTag) QNSASKRSLYSLQSISKRSLNLNDLLVFDDPLPSKKPASENVNKSEPHSLESDSDFEILCDQILFGNALDRILEEEEDNEKERDTQRQRQNDTKSSADTFTISGVSTNKENEGPEYPTKIEKNQFNMSYKPSENMSGLSSFPIFEKENTLSSSYLEEQKPKAAAASDITASFNKMNKQEGMRIEKKIQREQLQKKNDRPSPLKPIQ | – | 0.374 | – | 0.421 | – | –
GVSTNKENEGPEYPTKIEK-Cy5 [Cy5-labeled Hsl1 KEN peptide] | – | 0.185 | 1.48 | 0.166 | 14 µM and 12 µM | fold improvement of affinity with saturating unlabeled D box peptide, against no D box peptide [6]: ~4 fold
EQKPKRAALSDITNSFNKMNK-Cy5 [Cy5-labeled Hsl1 D box peptide] | 0.412 | 35.3 | 4.52 | 0.36 | 3.5 µM and 4 µM | kon [8]: 800000 M⁻¹ s⁻¹; kon [9]: 100000 M⁻¹ s⁻¹; Kd [10]: 0.036 µM; koff [11]: 2.8 s⁻¹; mean dwell time [3]: 1.08 s; fold improvement of affinity with unlabeled Hsl1 KEN peptide, against no KEN peptide [6]: ~3 fold; Kd [12]: ~2 µM; Kd [13]: ~2 µM
AQQQGRLPLAAKDNNRSKSFIK-Cy5 [Cy5-labeled ySecurin D box peptide] | 1.87 | 0.132 | – | – | – | –
PANEDKENNIVYTGK-Cy5 [Cy5-labeled ySecurin KEN peptide] | – | – | 0.869 | – | 26 µM and 40 µM | –
LPKATRKALGTVNRATEKSVKK-Cy5 [Cy5-labeled AurKB D box peptide] | – | – | 0.202 | – | – | –

Reference: article PMC8764033, “Single-molecule analysis of specificity and multivalency in binding of short linear substrate motifs to the APC/C” (Nature Communications, 2022)
